Measured values reported in patent US20210171654A1.

B1: 1H9 (parental mouse anti-human SIRPa monoclonal antibody) (antibody, V domains shown)
VH: QVQLQQPGAERVKPGASVKMSCKASGYTFTSYWITWVKQRPGQGLEWIGDIYPGSGSTNHIEKFKSKATLTVDTSSNTAYMQLSRLTSEDSAVYYCATGYGSSYGYFDYWGQGTTLTVSS
VL: DIQMTQSPASLSASVGETVTITCRASENIYSYLAWYQQKQGKSPQLLVYTAKTLAEGVPSRFSGSGSGTQFSLKINSLQPEDFGNYYCQHQYGPPFTFGSGTRLVIK
B2: 3C2 (parental mouse anti-human SIRPa monoclonal antibody) (antibody, V domains shown)
VH: QVQLQQPGAELVRPGSSVKLSCKASGYTFTSYWMHWVKQRPIQGLEWIGNIDPSDSDTHYNQKFKDKATLTVDKSSSTAYMQLSSLTSEDSAVYYCARGYSKYYAMDYWGQGTSVTVSS
VL: DVLMTQTPLSLSVSLGDQASISCRSSQSIVHSYGNTYLEWYLQKPGQSPKLLIYKVSNRFSGVPDRFSGSGSGTDFTLKISRVEAEDLGVYYCFQGSHVPYTFGGGTKLEIK
B3: Humanized 1H9 (antibody, human IgG1, kappa, N297A, V domains shown)
VH: QVQLVQSGAEVKKPGASVKVSCKASGYTFTSYWITWVKQAPGQGLEWIGDIYPGSGSTNHIEKFKSKATLTVDTSISTAYMELSRLRSDDTAVYYCATGYGSSYGYFDYWGQGTLVTVSS
VL: DIQMTQSPSSLSASVGDRVTITCRASENIYSYLAWYQQKPGKAPKLLIYTAKTLAEGVPSRFSGSGSGTDFTLTISSLQPEDFATYYCQHQYGPPFTFGQGTKLEIKR
B4: Humanized 3C2 (antibody, human IgG1, kappa, N297A, V domains shown)
VH: QVQLVQSGAEVKKPGASVKVSCKASGYTFTSYWMHWVRQAPGQGLEWMGNIDPSDSDTHYNQKFKDRVTMTRDTSTSTVYMELSSLRSEDTAVYYCARGYSKYYAMDYWGQGTLVTVSS
VL: DIVMTQTPLSLSVTPGQPASISCRSSQSIVHSYGNTYLEWYLQKPGQSPQLLIYKVSNRFSGVPDRFSGSGSGTDFTLKISRVEAEDVGVYYCFQGSHVPYTFGQGTKLEIKR

What was measured:
[1] = biological target: Human SIRPa-His fusion protein (extracellular domain of human SIRPa fused to His-tag) (human) (UniProt P78324); assay: Biacore (surface plasmon resonance), antibody captured, monomeric human SIRPa-His as analyte
[2] = biological target: Human SIRPa-His fusion protein (extracellular domain of human SIRPa fused to His-tag) (human) (UniProt P78324); assay: SPR, Biacore 3000 at 25 C, antibody captured by goat anti-human antibody, SIRPa-His as analyte

Row | Binder | Kd [1] [nM] | Kd [2] [nM]
1 | B1 | 2.06 | –
2 | B2 | 5.58 | –
3 | B3 | – | 1.15
4 | B4 | – | 5.53
